Assay results taken from the DeepSol protein solubility set.

test: soluble on expression in E. coli; label from the status in PepcDB or PDB records

Sequence	soluble on expression in E. coli
MDFGALPPEINSTRMYAGAGAAPLMAAGATWNGLAVELSTTASSVESVIMQLTTEQWLGPASMSMVVAAQPYLAWLTYTAESAAHAAAQAMASAAAFEAAFAMTVPPAEVAANRALLAALVATNVLGQNTPAIMATEAHYGEMWAQDALAMYGYAASSAAAGRLNPLITPSQTANMAGLAGQAAAVSHAAAASTVQQVGLGSLISNLPNAVMGFASPLTSAADAAGLGGIIQDIEELLGITFVQNAINGAVNTTAWFVMATIPNAVFLGHAFAALNPATVTAAADAVPAAAAAAGLAHTVTPVGVGGASLTASLGEASSVGGLSVPAGWSTAAPAMTSGTTALEGSGWAVPEEAGPVAAMPGMAGISGAAKGAGAYAGPRYGFKPIVMPKQVVV	not soluble
MNYSLRQLRIFITVAQAKSFSRAGDRIGLSQSAVSHSVKELERQTGVRLLDRTTREVVLTEAGQQLATRLERVLDELNSILRDAGRVGTQLTGTVRVAASQTISAHLIPQCIAQSNSLYPAIDFVLHDRPQQWVLESIRQGEVDFGIVIDPGAAVDLQCEAILSEPFLLLCRQDHPLAHQEWVSWQDLKQASLVLQDYASGSRPLIDAALAHFAIEADIVQEIGHPATLFPMVEAGIGISVLPALALPLPQGSHLQVKRLTPVVERQLMLARRKNRSLSTAAQALWDVVRTQASELTAARAKDPLYQL	not soluble
MSLNPTIQPYQFNIIKEQVAVLLNTYTSVNDATTVKTVQALCAEKINGLFPEEHPAVTILLDKVMDRRLTRARAEKYLDELKETVLPFKEPSTPQVTKVFRKVKKLKIPEWENMDLRNNTYVGWNDAGTQKIFILAYRENKLIGVHGTLSPTIVKGVCSICQTITNVSMFLATTKSGGDGTYTKKGNYICHDSDTCNQQLTQPEYLEAFMENVKAVKEGHHHHHH	soluble
MNQQEFQLREITYQDIKDLLAIEREVYAGELPWTMSAFMAELGSKAPHLYLLAAINGKTVGFIGCRIQGTDAHITNVAVHTAYQGLGLGRSLIEETRIFAKKNRCETLSLEVRMSNVKAQRLYRKIGFVSQTVKKGYYDENNEDALEMIIDLKEE	not soluble
MAHHHHHHMNWCLSRRWRFRLELLSASLLSRVHIGCHAEPRNNMSTTPAKNELASVHESIQITLSKIQEDSAKRSSQEQQLISSVASAKCLAGIFSAHSPTNDEVVRALKSAGEEEQVEAECLQRYQQFVEAKKRCFTSVEADLRSVSKVLSGVLAASEKVEEPTSGDCRAEVQENQCDGELLHLLRLWRTVVCLHDLVLGSLIKRGSDGSPCELQRFSAGEERSYVRESALRNTVADTEKMLLAIRKRWRDLTEEAEAVRATAESMTPLPFSDEATLLIADEKDEPLVASINQGLHELQQSSDRLRKKKVAVDEGAAALLEKVRNLSLQTAACRCSVEAFSQRSREAADDANSLMSAKARALQELHRKAQECASEQGLLDRDVGSYKQLCALLVEWAENEKSEAERIVAAEQEYHSLVSKERAQQEKLRCLRLSIKNLESEVRDASTEKQRIVGEVQYLSKLVSNPTVVTQVLARASEECHPEREVTALHNYLRFVQKARLERHTSHE	not soluble
MGSDKIHHHHHHMLKINMFSAADSVKGQGVGSAYNELMNLLKTHLNQEFDVSVNRYRRVDITHYHTINFSYYLSTFLPHRGRKIGYVHFLPETLEGSLKIPQPFRSIFYAYVLAFYRRMDHIVVVNPTFIPKLVAAGIPAERVTYIPNFVSRDEFYPVTVEQKQALRQQYGYATDRFTILGIGQIQERKGLFDFIKLARNNPSYQFIWAGGFSFGRMTDGYAELKKVVDNPPANLSFPGIVDRDKLVDYYNLADLFLLPSFNELFPMSVLEAFSTGTPVLLRDLDLYQAIIAGDYQPAKDYAEMDEQLHRLAADPQALAHWRQQSLAAADRYSEEHLTQIWREFYTQQAKER	not soluble
MDSTARGHAPLCRTSNQRGLGTRLNPYYQSTPHQPMVQSMSNPIGSYGEQGNAQIIGSSGQVLSTGPPPGLAPVQCNDFDSCYSSCDDISHPSLSRESSDPSKIDDDQTAPMIRYPAPEVVEFATKLGYSTEQLSHVLNTIGVDSRMDDVLSELVKMGLPGGKPENSGKSGSRNSPEPIMTSSASSSSASSSSSHRPIRQSVSIATSSPATSSSTPSKYNPDPSLRAVVVDGSNVAMLHGRKEVFSCAGLRECLNYFLERGHPEVLIFIPQYRREQPRSDSPITDQHILQEIERHIIYTPSRNVNGRRVVCHDDRYILRTAELKDAVIVSNDEYRDLTRENPAWRKIVEERLLMFTFVEDKSVF	not soluble
MKIEKFKVLLYLKKSRPDKSGKAPIMGRITVNRSMVQFSCKLSCTPDLWNPRESRLNGKSNEAVEVNAKLDKLLLSIHAAFDTLVERKADFDAEAVKNLFQGSLETQMTLLAMTDIVCEELRKRIGIDRAKGTYPAYFYTRRTLAEFIQKKFHSKDIAFGQLTEQFIHDYQFFVVDDKGLTIETSRHYLAIIKKVCRKAYKEGYADKCFFAHFSLPKQEEKTPKALSRESFEKIRDLVIPEHRSSHILARDLFLFACYTGTSYADAVSVTRDNLFTDDEGSLWLKYRRKKNELQACVKLLPEALELIEKYNDDTRPTLFPMLYHPNLRRLMKCLAVLADIKEDLTYHAGRHSFASLITLEAGVPIETICKMLGHSNLQTTQRYAKVTPKKLFEDMDKYIEATKDLKLIL	not soluble
MNENGATPVAAARRHRPLPAERATSNSNETGLLINVIRSLTSSVSEDQREVEKSRLEKGYKESGALIDRLVKNHQQDVEKCLVSFRDVSSKISNCRERIHNVRNALHTVKSLLELRRDDLKKLWHENAQQKSVCEIMAKLEELREAPSKIENLISKEQYQQAADTVTESRELINGRLSRVEGLSHLSAEIERFTKILIDKINDTLVNMLVVEPFEKHLLHIVRTIPEHRINQNAYCHSLSTKSRSGSGSVSSFSDVSAKSRIVSSVEALSTLFRTVEERHWDVDRLMMLGKNMIDKMIVNTVQVMKIGANIDESNEGDTTHLKQLMQLLSAQFDSASQQHAEFGVLVEKQLGRKDVVTSFWRSAQSAIEVVVSEHLDINPLLEKQNVLGTASRKQLFRFENTACATPNANSSSHRTKAVICKPSAYNIKVIFPILSRLMETTEKNINDSPCELRRFMHSFVMEVFVERVKGELASRIEGALRGGEAVRVSTNKKILPSCEKVLNLCKEVQDLIVSIDLYADRFAALWLLVLTDYFKNMTDVYDRMTPKNPDPSLPNSEALPTRRQKISAAWTADDDISRLLMSLPNWHAASISPMTPAVESELDVGERNKRESEILIGNLGTQAQNSLSESDLITDMNDIKMFASLHESLRWFSDEIRELVHSLPANVKMMLDTCMVQVRLKDGQMIDNNSVPSAIEDCVRRLESIADSCLLLLHIEIRVHCFFHLAPLAKYRNTSSHNEVDPEVVALGKDLHQFHDNLKDVLSPAKLSYVFDGLGHLCASLFIHYSQFMPRLTEAAKKRVCRNVWGVQQRLSRITNRRESDLDRARAFFDLLLDNTPDGILAIVPEKRSQFTATELNYLLALSVRSDKTLASQPGALEKRQMVLNSILNQKK	not soluble
MTMIKKIETELLAAKATLSEISGRFKEFSDTQARLSADGDLLGLARLNKEHTGLEDSLLAADDTVRALESRLSVLRQAEYRPQFDKAHKTHLGAVQAETKAAEKLLAAIDAVFSAATDMQNLSDEVAATYHAARDLHNRAGLDHELRWPAPDGQIPIKISDRMNSLRDELVRTIRLYEDRLPQSQSLEGLRIIEQQQEELVRNSGRGFR	soluble
MSLSHMANEMLLDIDGMDFVEDEDMGAEGELQFSFDPVSNAPMVSFPSTQQPDLEKLRFKFAPVLSRSFAFNGGSRTGTLYGVQVPYVDNSKEFSQYAAKLFEVYKSLGADKQFAVPTIGLINHTSTLEHNQTVNLALEAIVSELELFIESLKYSGRQQRLVDLEECLSILNCLKTVQFTLDSEEENSRAKFIDSLISWVNRTDGEPSEAVIAKVLGDGKQTPILENPYFWRLLCQLIIRGLFDQAVAAIEKSELLSYLADKCSATHTMVQDMVNLLQGYPRELEPVYREWKDLVLQLHLNWSQSEHKISIELASSLEDCLLIMCGNKSKIIYYSKTWYECYCGLMLYYIPSLQLSEEYLQLVLKEHPLDVTSPWEQACVSIITGKIYSILPVLDSLDSCTAAFTAAICEAKGLLENDLLDDGGLEVSNTGDEMFGLGNTMASYLLNQFALSIVTYEDKNLWAVAIGIIYLTPNYSDAAKRMMIAELLPHYPFQTNDDIEWMLTICAKWKLPQIARTIYRVLGQEALYLNNIIEAISNFSKAGEFEWVKHYSWMIFEASILQGAPLEDEVVNSIVTGEYESAIPKELVEVMVTPAMKQSLSPYAVLFNFFRATEDGRWAEALKLLLSLIEFTYLPPQYLILLIGRFLYPLFLQDESKMFKEQDVLRVIKALEQFHDRPDEITTAMYKELLVKVDTLPKDPLNLINAIRTKLSLKLCHQFMEGHHHHHH	not soluble
MSLDIARIAVHESVAKACPLEAMVAALQGPDVRVETVGDDASFDASDCVVTFSPREAFLDAAWVHGIRAGYDEFDVDAYEAAGTVLTNSTGIHGDTVPETVVGYLTAFARRLHVYRDRQRDNDWTQEPYDAPFTLTGEQVCVVGLGTIGQGVADRTDALGMDVVGVRRSGDPAENVERVYTPDELDAAVADARFVVLCCPLTEETEGMVDAALLAQMRADSYLVNVARGPVVVEDALLNALDTGTIAGAALDAHWAEPLPDDHPLWNHESAIVTPHVAAATSRYHEDIAALVRENVERATRGESLRNRVAEGHHHHHH	not soluble
TMAGRSMQAARCPTDELSLSNCAVVSEKDYQSGQHVIVRTSPNHKYIFTLRTHPSVVPGSVAFSLPQRKWAGLSIGQEIEVALYSFDKAKQCIGTMTIEIDFLQKKNIDSNPYDTDKMAAEFIQQFNNQAFSVGQQLVFSFNDKLFGLLVKDIEAMDPSILKGEPASGKRQKIEVGLVVGNSQVAFEKAENSSLNLIGKAKTKE	soluble
MFRRKLTALDYHNPAGFNCKDETEFRNFIVWLEDQKIRHYKIEDRGNLRNIHSSDWPKFFEKYLRDVNCPFKIQDRQEAIDWLLGLAVRLEYGDNAEKYKDLVPDNSKTADNATKNAEPLINLDVNNPDFKAGVMALANLLQIQRHDDYLVMLKAIRILVQERLTQDAVAKANQTKEGLPVALDKHILGFDTGDAVLNEAAQILRLLHIEELRELQTKINEAIVAVQAIIADPKTDHRLGKVGRLEHHHHHH	soluble
MGSDKIHHHHHHMDLDRLQTFLKVVQYGSFQQVAAREYRSQRTVSKQMTQLENELKVTLFDRGQNRIQLTPQGRLFWASAQDIVNNYTTALTELRQFNVPTDQILRVGYFSAFEQRLLLPALYDLKQQHSELQLVVRQGSNEHLAQQVADGSLDLALSINYGRPAVTPESQLTAVPIYHNQMVIGVSRLNPLSRLSQLPPSALATLPILYYSPESSTFLLESFLASAPFIQDYEQIRRVSSAEQMHLLVALNQALAFYPAGLVPTKHDEQVAYLPITDAAQQGYDIVALLKSNRSRPLIAKLVQRLKANAKSDE	not soluble
AHHHHHHGSLEKLLEQAGIKLDFDGEEEKKSEIVDEFSGYKINIAVVGVGGSGNNTISRLYDLGVQGADLIAMNTDAQHLAITKAHKKVLLGKHITQGKGSGGDPKVGYLAAEASAQEIAAAVDGYDLVFITAGMGNGTGTGAAPVVARIVKETARNNGRFQEPLVVSVVTFPFKTEGTVRIEKAKWGIQRLLEYSDTVIIIQNDKLLELVPKLPLQSAFRFADELIARMVKGIVETIKLNSIVNIDFADVYSIMKGGGPALIGIGESDSNNRAVDAVNNALTNKMLDVEFGSGEKALVHFTIGPDVSLEEINKAMEVVYEKLSEKSEIKWGAMVDPEMGKTVRAMVIMTGVRSPYILGNVNALTDSSSWVVPKDRRLIGDPRIEKMFPDFNGSRAGRKRPSVGDAILKELGFKEL	soluble
PDYIYAKDTAGRFLIANEVTVADNGLESLRDLVGKTDFDLHPHEFAQAVADTERRVLETGEPIFGIEERAIVTKDRDRWLMTSKVPLRSKSGRIIGIVGISRD	not soluble
